One assay has as its target BSA (UniProt P02769 25-607). As to the kind of experiment: phage ELISA, BSA on plate. As to the method: (§1) From each round, individual peptide-displaying phage were isolated and analyzed for binding to IGF-1 in a phage ELISA by capturing the peptide-phage with IGF-1 immobilized on a plate, and detecting bound phage (see below). As a control for non-specific binding, the phage were also analyzed in a phage ELISA that used plates coated with BSA. […]
(§2) MAXISORP™ immunoplates (96-well) were coated with capture target protein for 2 hours at room temperature (100 μL at 5 μg/mL in 50 mM carbonate buffer, pH 9.6). The plates were then blocked for 1 h with 0.2% BSA in phosphate-buffered saline (PBS) and washed eight times with PBS, 0.05% TWEEN®-20 detergent. Phage particles were serially diluted into BSA blocking buffer and 100 μL were transferred to coated wells. After I h, plates were washed eight times with PBS, 0.05% TWEEN®-20 detergent, incubated with 100 μL of 1:3000 horse radish peroxidase/anti-M 13 antibody conjugate in BSA blocking buffer for 30 min. and then washed eight times with PBS, 0.05% TWEEN®-20 detergent and two times with PBS. Plates were developed using a tetramethylbenzidine substrate (TMB, Kirkegaard and Perry, Gaithersburg, Md.), stopped with 1.0 M H3PO₄, and read spectrophotometrically at 450 nm.
(An ELISA detects its analyte on a solid surface through an enzyme-linked reagent.)

For assay [1], the target named is T1, IGF-1 (human, UniProt P05019 49-118).
T1 construct: mature; also called insulin-like growth factor-1; rhIGF-1
T1 sequence (P05019 49-118): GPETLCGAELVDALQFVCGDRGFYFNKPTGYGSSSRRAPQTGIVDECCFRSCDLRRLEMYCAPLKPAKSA
The experiment in a line: phage ELISA, IGF-1 on plate. As to the method: as §1, §2

For assay [2], the target named is T1, IGF-1. As to the kind of experiment: cell-based or functional assay.

Chain of BSA (P02769 25-607 limits assumed): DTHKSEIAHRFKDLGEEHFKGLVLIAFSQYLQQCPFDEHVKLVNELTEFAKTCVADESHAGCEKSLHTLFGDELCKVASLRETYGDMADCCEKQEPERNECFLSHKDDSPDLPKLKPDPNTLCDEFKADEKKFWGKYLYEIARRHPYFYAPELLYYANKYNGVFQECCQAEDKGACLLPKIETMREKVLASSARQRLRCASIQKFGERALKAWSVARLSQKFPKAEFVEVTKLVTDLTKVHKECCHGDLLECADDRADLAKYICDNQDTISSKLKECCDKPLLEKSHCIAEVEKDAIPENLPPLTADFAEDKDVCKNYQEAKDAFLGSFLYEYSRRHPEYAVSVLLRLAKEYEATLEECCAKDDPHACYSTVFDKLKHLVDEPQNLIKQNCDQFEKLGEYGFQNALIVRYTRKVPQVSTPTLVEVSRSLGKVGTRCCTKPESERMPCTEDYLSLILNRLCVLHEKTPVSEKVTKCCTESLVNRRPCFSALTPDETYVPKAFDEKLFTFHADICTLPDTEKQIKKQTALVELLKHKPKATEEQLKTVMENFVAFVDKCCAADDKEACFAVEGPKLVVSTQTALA

B1: GVETCYSDAMNTQYCWTTEL (peptide)
chain: GVETCYSDAMNTQYCWTTELGGGSGGGAEGDDPAKAAFNSLQASATEYIGYAWAMVVVIVGATIGIKLFKKFTSKAS
notes: naive clone; polyvalent P8 display on phage; STII signal left out
B1: the binding result was “no binding” with BSA and “binds” with IGF-1 [1].

B2: HWDWTGGYWWIGREPWKEAA (peptide)
chain: HWDWTGGYWWIGREPWKEAAGGGSGGGAEGDDPAKAAFNSLQASATEYIGYAWAMVVVIVGATIGIKLFKKFTSKAS
notes: as for B1
With B2, the values for the binding result with BSA and in the assay with IGF-1 [1] were “no binding” and “binds”, respectively.

B3: GEGPECDLRQWGNLCGHWET (peptide)
chain: GEGPECDLRQWGNLCGHWETGGGSGGGAEGDDPAKAAFNSLQASATEYIGYAWAMVVVIVGATIGIKLFKKFTSKAS
notes: as for B1
For the molecule B3, the binding result in the assay with BSA is listed as “no binding”; with IGF-1 [1], “binds”.

B4: VEEKCYESITALRHCMQAMQ (peptide)
chain: VEEKCYESITALRHCMQAMQGGGSGGGAEGDDPAKAAFNSLQASATEYIGYAWAMVVVIVGATIGIKLFKKFTSKAS
notes: as for B1
For the molecule B4, the binding result was “no binding” with BSA and “binds” with IGF-1 [1].

For the molecule ARCVVDAGGTWYCWAG [F2-P], the “Insulin KIRA” value with IGF-1 [2] was 300 µM.

B5: TAGIECAYDKHLDQYCWWKE (peptide)
chain: TAGIECAYDKHLDQYCWWKEGGGSGGGAEGDDPAKAAFNSLQASATEYIGYAWAMVVVIVGATIGIKLFKKFTSKAS
notes: as for B1
With B5, the binding result is listed as “no binding” with BSA and “binds” with IGF-1 [1].

B6: EAGAESRGWLQARCGELLGV (peptide)
chain: EAGAESRGWLQARCGELLGVGGGSGGGAEGDDPAKAAFNSLQASATEYIGYAWAMVVVIVGATIGIKLFKKFTSKAS
notes: as for B1
For B6, the binding result was “no binding” in the assay with BSA and “binds” in the assay with IGF-1 [1].

B7: GESTCVTDLERVEYCWDEKS (peptide)
chain: GESTCVTDLERVEYCWDEKSGGGSGGGAEGDDPAKAAFNSLQASATEYIGYAWAMVVVIVGATIGIKLFKKFTSKAS
notes: as for B1
For the molecule B7, the results for the binding result with BSA and with IGF-1 [1] were “no binding” and “binds”, respectively.

B8: VMDQCFESYAEMRKCMLDGS (peptide)
chain: VMDQCFESYAEMRKCMLDGSGGGSGGGAEGDDPAKAAFNSLQASATEYIGYAWAMVVVIVGATIGIKLFKKFTSKAS
notes: as for B1
With B8, the binding result with BSA is “no binding”; with IGF-1 [1] it was “binds”.

B9: GEAAECAYDSLGMAYCYAKE (peptide)
chain: GEAAECAYDSLGMAYCYAKEGGGSGGGAEGDDPAKAAFNSLQASATEYIGYAWAMVVVIVGATIGIKLFKKFTSKAS
notes: as for B1
On to B9, for which the binding result was “no binding” in the assay with BSA and “binds” with IGF-1 [1].

B10: QIPAGCYESVQSLLECVQSA (peptide)
chain: QIPAGCYESVQSLLECVQSAGGGSGGGAEGDDPAKAAFNSLQASATEYIGYAWAMVVVIVGATIGIKLFKKFTSKAS
notes: as for B1
On to B10, for which the binding result is “no binding” with BSA and “binds” with IGF-1 [1].

B11: LSSEECWEALKWQGCLMSER (peptide)
chain: LSSEECWEALKWQGCLMSERGGGSGGGAEGDDPAKAAFNSLQASATEYIGYAWAMVVVIVGATIGIKLFKKFTSKAS
notes: as for B1
As for B11, the figures for the binding result with BSA and with IGF-1 [1] were “no binding” and “binds”, respectively.

With LGCASDLAGFWYCWAG [F2-1], the “Insulin KIRA” value in the assay with IGF-1 [2] was 40.4 µM.

B12: YDWVEACQKWPVLCMDSTMY (peptide)
chain: YDWVEACQKWPVLCMDSTMYGGGSGGGAEGDDPAKAAFNSLQASATEYIGYAWAMVVVIVGATIGIKLFKKFTSKAS
notes: as for B1
With B12, the binding result is given as “no binding” with BSA and “binds” in the assay with IGF-1 [1].

B13: CECGKVSSRGCEKLCWLVSYM (peptide)
chain: CECGKVSSRGCEKLCWLVSYMGGGSGGGAEGDDPAKAAFNSLQASATEYIGYAWAMVVVIVGATIGIKLFKKFTSKAS
notes: as for B1
As for B13, the results for the binding result with BSA and with IGF-1 [1] were “no binding” and “binds”, respectively.

Turning to WRCVDDLGGFQYCWAG [F2-2], in the assay with IGF-1 [2], the “IGF-1 KIRA” value came out at 130 µM and the “Insulin KIRA” value stood at 93.6 µM.

B14: GAQAWLCEQREEWCGQMLGT (peptide)
chain: GAQAWLCEQREEWCGQMLGTGGGSGGGAEGDDPAKAAFNSLQASATEYIGYAWAMVVVIVGATIGIKLFKKFTSKAS
notes: as for B1
Take B14: the values for the binding result with BSA and with IGF-1 [1] were “no binding” and “binds”, respectively.

B15: SGTACRWGPSWLLCSLAGSP (peptide)
chain: SGTACRWGPSWLLCSLAGSPGGGSGGGAEGDDPAKAAFNSLQASATEYIGYAWAMVVVIVGATIGIKLFKKFTSKAS
notes: as for B1
As for B15, the binding result is “no binding” with BSA and “binds” with IGF-1 [1].

B16: VESECLLSLPNLRRCMMDRL (peptide)
chain: VESECLLSLPNLRRCMMDRLGGGSGGGAEGDDPAKAAFNSLQASATEYIGYAWAMVVVIVGATIGIKLFKKFTSKAS
notes: as for B1
B16: the binding result is listed as “no binding” in the assay with BSA and “binds” with IGF-1 [1].

B17: IECWQDLQGTRLCWE (peptide)
chain: IECWQDLQGTRLCWEGGGSGGGAEGDDPAKAAFNSLQASATEYIGYAWAMVVVIVGATIGIKLFKKFTSKAS
notes: as for B1
With B17, the binding result in the assay with BSA is listed as “no binding”; in the assay with IGF-1 [1], “binds”.

For the molecule DECLMSVEALKNCMGG [F1-P], in the assay with IGF-1 [2], the “IGF-1 KIRA” value was 400 µM and the “Insulin KIRA” value was determined as 183 µM.

B18: GASTTCLEKYRERQWCKELT (peptide)
chain: GASTTCLEKYRERQWCKELTGGGSGGGAEGDDPAKAAFNSLQASATEYIGYAWAMVVVIVGATIGIKLFKKFTSKAS
notes: as for B1
Regarding B18, the binding result in the assay with BSA was “no binding”; in the assay with IGF-1 [1] it was “binds”.

B19: EVARCVVDAGGTWYCWAEMA (peptide)
chain: EVARCVVDAGGTWYCWAEMAGGGSGGGAEGDDPAKAAFNSLQASATEYIGYAWAMVVVIVGATIGIKLFKKFTSKAS
notes: as for B1
On to B19, for which the binding result is “no binding” with BSA and “binds” in the assay with IGF-1 [1].

B20: HPDKCFADVRALQECMESVR (peptide)
chain: HPDKCFADVRALQECMESVRGGGSGGGAEGDDPAKAAFNSLQASATEYIGYAWAMVVVIVGATIGIKLFKKFTSKAS
notes: as for B1
For B20, the binding result is “no binding” in the assay with BSA and “binds” in the assay with IGF-1 [1].

B21: SFCEFNDWWPTCLV (peptide)
chain: SFCEFNDWWPTCLVGGGSGGGAEGDDPAKAAFNSLQASATEYIGYAWAMVVVIVGATIGIKLFKKFTSKAS
notes: as for B1
Consider B21, for which the values for the binding result with BSA and with IGF-1 [1] were “no binding” and “binds”, respectively.

B22: STYSCIRDMGWAVYCWETTL (peptide)
chain: STYSCIRDMGWAVYCWETTLGGGSGGGAEGDDPAKAAFNSLQASATEYIGYAWAMVVVIVGATIGIKLFKKFTSKAS
notes: as for B1
Take B22: the binding result with BSA was “no binding”; with IGF-1 [1], “binds”.

B23: DAMDCVVGPEWRKCFLEG (peptide)
chain: DAMDCVVGPEWRKCFLEGGGGSGGGAEGDDPAKAAFNSLQASATEYIGYAWAMVVVIVGATIGIKLFKKFTSKAS
notes: as for B1
As to B23, the binding result is “no binding” in the assay with BSA and “binds” in the assay with IGF-1 [1].

B24: REVKCMKDLSGHEYCWAEPR (peptide)
chain: REVKCMKDLSGHEYCWAEPRGGGSGGGAEGDDPAKAAFNSLQASATEYIGYAWAMVVVIVGATIGIKLFKKFTSKAS
notes: as for B1
On to B24, for which the binding result with BSA is “no binding”; with IGF-1 [1] it was “binds”.

B25: GIREELCDKGLHKMCFREVR (peptide)
chain: GIREELCDKGLHKMCFREVRGGGSGGGAEGDDPAKAAFNSLQASATEYIGYAWAMVVVIVGATIGIKLFKKFTSKAS
notes: as for B1
Consider B25, for which the results for the binding result with BSA and with IGF-1 [1] were “no binding” and “binds”, respectively.

B26: VKDECLMSVEALKNCMGLVS (peptide)
chain: VKDECLMSVEALKNCMGLVSGGGSGGGAEGDDPAKAAFNSLQASATEYIGYAWAMVVVIVGATIGIKLFKKFTSKAS
notes: as for B1
As to B26, the binding result with BSA is reported as “no binding”; with IGF-1 [1], “binds”.

Source of the values: patent publication US20030092631A1 (Genentech, published 2003).
